B1: MEIG1 wild type, two-hybrid fusion from MEIG1/pGBKT7 [mouse] / Parkin co-regulated gene protein (PACRG), two-hybrid fusion from PACRG/pGADT7 [mouse] (parent complex)
chain 1: MATSDVKPKSISRAKKWSEEIENLYRFQQAGYRDEIEYKQVKQVAMVDRWPETGYVKKLQRRDNTFFYYNKERECEDKEVHKVKVYVY
chain 2: not shown

Variants of: B1
Experiment: yeast two-hybrid, α-galactosidase activity; Yeast strain AH109 co-transformed with PACRG/pGADT7 and MEIG1/pGBKT7 plasmids; parent: 65; read off a plot

Row | response | Variant
1 | ~72 | chain 1 K9E
2 | ~10 | chain 1 W50A
3 | ~72 | chain 1 V87A
4 | ~58 | chain 1 Y25A
5 | ~81 | chain 1 R13E
6 | ~67 | chain 1 I36A
7 | ~22 | chain 1 K57E
8 | ~72 | chain 1 E20R
9 | ~67 | chain 1 R62E
10 | ~85 | chain 1 H81A
11 | ~5 | chain 1 Y68A
12 | ~15 | chain 1 F66A

Variants of: B1
Experiment: yeast two-hybrid, α-galactosidase activity; Yeast strain AH109 co-transformed with PACRG/pGADT7 and MEIG1/pGBKT7 plasmids; parent: 64; read off a plot

Row | response | Variant
13 | ~12 | chain 1 W50A
14 | ~2.2 | chain 1 W50A, chain 1 Y68A
15 | ~3.3 | chain 1 Y68A

Reference: PMC4698733 (2016)
